Laboratory results: patent US20120100561A1 (published 2012)

Target: T1, Flag-PKN3 wt (N-terminal Flag epitope-tagged full-length kinase active human PKN3) (human, UniProt Q6P5Z2 1-889)
T1 construct: Expressed from pcDNA3 in HEK293T or PC3 cells and pulled down with anti-Flag M2 resin; The kinase-dead version carries K588R; also called Flag-tagged PKN3; kinase-active form of PKN3
Assay: anti-Flag M2 co-immunoprecipitation from transfected HEK293T cells, Western blot
Method: Thus, PKN3, RhoC and PDK1 form a ternary complex (“PPRC complex.”)
For immunoprecipitations with Flag (FIG. 4B), HEK293T cells (5×10⁵ cells/10-cm tissue culture dish) were either singly transfected or cotransfected with the indicated plasmids (Flag-PKN3 wt [full-length kinase active], Flag-PKN3 kd [kinase-dead PKN3], Myc-RhoA, Myc-RhoB or Myc-RhoC) by FUGENE® transfection reagent. After 6 hours of incubation at 37° C. in a 5% CO₂ incubator, cells were washed twice in serum-free Dulbecco's modified Eagle's medium (DMEM), and fresh medium (DMEM, 10% fetal bovine serum) was added to the cells for a further 48 h of incubation. Cells were washed with phosphate-buffered saline (PBS) and lysed in 0.5 ml of lysis buffer (50 mM Tris-HCl [pH 7.5], 150 mM NaCl, 10 mM β-glycerolphosphate, 10% glycerol, 1% Triton X-100, 1 mM Na₃VO₄, 1 mM NaF, and protease inhibitors [Roche Molecular Biochemicals]) for 30 minutes on ice. […] The beads were then washed three times with TBS buffer (50 mM Tris-HCl [pH 7.5], 150 mM NaCl), and bound proteins were eluted with TBS buffer containing 10% glycerol, 1 mM DTT and 200 μg of Flag peptide (Sigma)/ml. The bound products were visualized by Western blot analysis (FIG. 4).

T1 sequence (Q6P5Z2 other isoform, or with tags, fused parts or gaps limits assumed): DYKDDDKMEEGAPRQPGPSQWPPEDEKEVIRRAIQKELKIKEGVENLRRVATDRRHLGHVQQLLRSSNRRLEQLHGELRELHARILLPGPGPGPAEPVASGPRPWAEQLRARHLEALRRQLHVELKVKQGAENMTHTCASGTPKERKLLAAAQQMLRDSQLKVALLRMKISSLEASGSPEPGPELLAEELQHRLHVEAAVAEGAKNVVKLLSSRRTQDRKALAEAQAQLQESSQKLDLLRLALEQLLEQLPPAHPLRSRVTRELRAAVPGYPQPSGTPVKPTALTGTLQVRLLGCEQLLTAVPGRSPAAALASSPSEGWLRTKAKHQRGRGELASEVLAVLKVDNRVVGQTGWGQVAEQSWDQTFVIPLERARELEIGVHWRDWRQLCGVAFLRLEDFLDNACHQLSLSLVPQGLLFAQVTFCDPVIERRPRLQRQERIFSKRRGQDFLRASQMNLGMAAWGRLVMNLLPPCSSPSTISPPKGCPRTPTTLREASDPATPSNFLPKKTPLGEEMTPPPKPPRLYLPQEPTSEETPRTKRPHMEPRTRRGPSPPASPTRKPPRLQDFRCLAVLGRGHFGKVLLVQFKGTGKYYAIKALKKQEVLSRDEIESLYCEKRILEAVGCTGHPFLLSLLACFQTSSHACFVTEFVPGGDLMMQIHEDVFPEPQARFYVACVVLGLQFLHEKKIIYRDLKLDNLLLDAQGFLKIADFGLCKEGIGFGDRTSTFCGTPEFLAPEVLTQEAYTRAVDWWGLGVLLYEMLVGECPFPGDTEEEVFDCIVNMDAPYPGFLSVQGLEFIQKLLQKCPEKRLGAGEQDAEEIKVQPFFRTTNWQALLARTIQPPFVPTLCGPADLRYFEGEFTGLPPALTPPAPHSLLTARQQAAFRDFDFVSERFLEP

B1: phosphoinositide-dependent kinase-1 (PDK1) (enzyme, UniProt O15530 1-556, looked up)
chain: MARTTSQLYDAVPIQSSVVLCSCPSPSMVRTQTESSTPPGIPGGSRQGPAMDGTAAEPRPGAGSLQHAQPPPQPRKKRPEDFKFGKILGEGSFSTVVLARELATSREYAIKILEKRHIIKENKVPYVTRERDVMSRLDHPFFVKLYFTFQDDEKLYFGLSYAKNGELLKYIRKIGSFDETCTRFYTAEIVSALEYLHGKGIIHRDLKPENILLNEDMHIQITDFGTAKVLSPESKQARANSFVGTAQYVSPELLTEKSACKSSDLWALGCIIYQLVAGLPPFRAGNEYLIFQKIIKLEYDFPEKFFPKARDLVEKLLVLDATKRLGCEEMEGYGPLKAHPFFESVTWENLHQQTPPKLTAYLPAMSEDDEDCYGNYDNLLSQFGCMQVSSSSSSHSLSASDTGLPQRSGSNIEQYIHDLDSNSFELDLQFSEDEKRLLLEKQAGGNPWHQFVENNLILKMGPVDKRKGLFARRRQLLLTEGPHLYYVDPVNKVLKGEIPWSQELRPEAKNFKTFFVHTPNRTYYLMDPSGNAHKWCRKIQEVWRQRYQSHPDAAVQ
notes: It co-precipitated with Flag-PKN3 from cell lysates
B1: binds.
